Measurements reported in patent US20210380703A1 (RIGEL PHARMACEUTICALS, published 2021).

Assays:
mouse ACVR2A = mouse ACVR2A (mouse, UniProt P27038 20-135, limits assumed); assay: ELISA
Method in brief: (§1)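 ELISA measured binding of ACVR2A-specific monoclonal antibodies to human and mouse ACVR2A. Biotinylated goat anti-human kappa light chain served as positive control and human Fc as negative control.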

human ACVR2A = human ACVR2A (human, UniProt P27037 20-135, limits assumed); assay: ELISA
Method in brief: as §1

[1] = molecular target: T1, biotinylated goat anti-human kappa light chain; assay: ELISA; positive control
T1 construct: Positive control of the ELISA
Method in brief: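 mAb binding by ELISA; antigens: hu ACVR2A, mu ACVR2A; pos ctrl biotinylated goat anti-hu kappa LC; neg ctrl hu Fc.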
Note: test concentration or dose not given here.

Chain of human ACVR2A (P27037 20-135 limits assumed): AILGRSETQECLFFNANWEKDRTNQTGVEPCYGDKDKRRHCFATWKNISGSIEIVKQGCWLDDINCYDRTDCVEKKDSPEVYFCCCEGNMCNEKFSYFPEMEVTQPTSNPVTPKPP
Chain of mouse ACVR2A (P27038 20-135 limits assumed): as the sequence (P27037 20-135 limits assumed) above, with K20R, V73I counted along it

Binder	optical density (mouse ACVR2A)	optical density (human ACVR2A)	optical density [1]
374_D02 (antibody, V domains shown, VH/VL only) VH: EVQLLESGGGLVQPGGSLRLSCAASGFTFDSYSMNWVRQAPGKGLEWVAGINYNSGYTSYADSVKGRFTISRDNSKNTLYLQMNSLRAEDTAVYYCARSATWHDTHLDYWGQGTLVTVSS VL: DIQMTQSPSSLSASVGDRVTITCRASQSISTYVNWYQQKPGKAPKLLIYAVTSLASGVPSRFSGSGSGTDFTLTISSLQPEDFATYYCQQSYDSPLTFGGGTKVEIK	3.2 OD	3.06 OD	2.99 OD
374_F11 (antibody, V domains shown, VH/VL only) VH: EVQLLESGGGLVQPGGSLRLSCAASGFTFDSYSMNWVRQAPGKGLEWVSNINYNGGYTGYADSVKGRFTISRDNSKNTLYLQMNSLRAEDTAVYYCARSANWHDTALDYWGQGTLVTVSS VL: DIQMTQSPSSLSASVGDRVTITCRASQSILSYLNWYQQKPGKAPKLLIYAVTSLASGVPSRFSGSGSGTDFTLTISSLQPEDFATYYCQQSYESPLTFGGGTKVEIK	3.61 OD	3.66 OD	3.15 OD
374_F10 (antibody, V domains shown, VH/VL only) VH: EVQLLESGGGLVQPGGSLRLSCAASGFTFSSYSMNWVRQAPGKGLEWVSGINYNGGYTSYADSVKGRFTISRDNSKNTLYLQMNSLRAEDTAVYYCARSANWHDTALDYWGQGTLVTVSS VL: DIQMTQSPSSLSASVGDRVTITCRASQSILSYLNWYQQKPGKAPKLVIYAATSRASGVPSRFSGSGSGTDFTLTISSLQPEDFATYYCQQSYDNPLTFGGGTKVEIK	3.45 OD	3.21 OD	3.28 OD
374_E08 (antibody, V domains shown, VH/VL only) VH: EVQLLESGGGLVQPGGSLRLSCAASGFTFSSYGMNWVRQAPGKGLEWVAGINYNGGYKSYADSVKGRFTISRDNSKNTLYLQMNSLRAEDTAVYYCARSANWHDTALDYWGQGTLVTVSS VL: DIQMTQSPSSLSASVGDRVTITCRASQSILSYLNWYQQKPGKAPKLLIYAATSRHSGVPSRFSGSGSGTDFTLTISSLQPEDFATYYCQQSYDLPLTFGGGTKVEIK	3.52 OD	3.5 OD	3.26 OD
374_H04 (antibody, V domains shown, VH/VL only) VH: EVQLLESGGGLVQPGGSLRLSCAASGFTFDSYSMNWVRQAPGKGLEWVSGINYNSGYTSYADSVKGRFTISRDNSKNTLYLQMNSLRAEDTAVYYCARSANWHDTALDYWGQGTLVTVSS VL: DIQMTQSPSSLSASVGDRVTITCRASQSILTYLNWYQQKPGKAPKLLIYAATSRASGVPSRFSGSGSGTDFTLTISSLQPEDFATYYCQQSYDNPLTFGGGTKVEIK	3.31 OD	3.28 OD	3.19 OD
374_D12 (antibody, V domains shown, VH/VL only) VH: EVQLLESGGGLVQPGGSLRLSCAASGFTFDSYSMNWVRQAPGKGLEWVSGINYNGGYTGYADSVKGRFTISRDNSKNTLYLQMNSLRAEDTAVYYCARSATWHDTHLDYWGQGTLVTVSS VL: DIQMTQSPSSLSASVGDRVTITCRASQSIVSYVNWYQQKPGKAPKLVIYAATSRASGVPSRFSGSGSGTDFTLTISSLQPEDFATYYCQQSYDLPLTFGGGTKVEIK	3.28 OD	3.55 OD	3.09 OD
374_G04 (antibody, V domains shown, VH/VL only) VH: EVQLLESGGGLVQPGGSLRLSCAASGFTFSSYSMNWVRQAPGKGLEWVAGINYNGGYTGYADSVKGRFTISRDNSKNTLYLQMNSLRAEDTAVYYCARSANWHDTALDYWGQGTLVTVSS VL: DIQMTQSPSSLSASVGDRVTITCRASQSILTYLNWYQQKPGKAPKLVIYAATSLASGVPSRFSGSGSGTDFTLTISSLQPEDFATYYCQQSYDNPLTFGGGTKVEIK	2.32 OD	2.1 OD	3.02 OD
374_E09 (antibody, V domains shown, VH/VL only) VH: EVQLLESGGGLVQPGGSLRLSCAASGFTFSDYSMNWVRQAPGKGLEWVSGINYNGGYKGYADSVKGRFTISRDNSKNTLYLQMNSLRAEDTAVYYCARSATWHDTHLDYWGQGTLVTVSS VL: DIQMTQSPSSLSASVGDRVTITCRASQSIVTYLNWYQQKPGKAPKLVIYAATSRASGVPSRFSGSGSGTDFTLTISSLQPEDFATYYCQQSYDSPLTFGGGTKVEIK	3.58 OD	3.67 OD	3.16 OD
374_H06 (antibody, V domains shown, VH/VL only) VH: EVQLLESGGGLVQPGGSLRLSCAASGFTFSSYGMNWVRQAPGKGLEWVSNINYNGGYTGYADSVKGRFTISRDNSKNTLYLQMNSLRAEDTAVYYCARSANWHDTALDYWGQGTLVTVSS VL: DIQMTQSPSSLSASVGDRVTITCRASQSIVSYVNWYQQKPGKAPKLVIYAATSRASGVPSRFSGSGSGTDFTLTISSLQPEDFATYYCQQSYNLPLTFGGGTKVEIK	3.26 OD	3.3 OD	3.08 OD
374_E02 (antibody, V domains shown, VH/VL only) VH: EVQLLESGGGLVQPGGSLRLSCAASGFTFSSYSMNWVRQAPGKGLEWVSGINYNGGYTSYADSVKGRFTISRDNSKNTLYLQMNSLRAEDTAVYYCARSANWHDTALDYWGQGTLVTVSS VL: DIQMTQSPSSLSASVGDRVTITCRASQSILSYLNWYQQKPGKAPKLLIYAATSLASGVPSRFSGSGSGTDFTLTISSLQPEDFATYYCQQSYDLPLTFGGGTKVEIK	3.33 OD	3.23 OD	3.18 OD
374_F01 (antibody, V domains shown, VH/VL only) VH: EVQLLESGGGLVQPGGSLRLSCAASGFTFDSYSMNWVRQAPGKGLEWVSNINYNGGYTGYADSVKGRFTISRDNSKNTLYLQMNSLRAEDTAVYYCARSANWHDTALDYWGQGTLVTVSS VL: DIQMTQSPSSLSASVGDRVTITCRASQSILSYVNWYQQKPGKAPKLVIYAATSRHSGVPSRFSGSGSGTDFTLTISSLQPEDFATYYCQQSYENPLTFGGGTKVEIK	3.6 OD	3.29 OD	3.03 OD
374_H07 (antibody, V domains shown, VH/VL only) VH: EVQLLESGGGLVQPGGSLRLSCAASGFTFDSYGMNWVRQAPGKGLEWVANINYNGGYTGYADSVKGRFTISRDNSKNTLYLQMNSLRAEDTAVYYCARSANWHDTALDYWGQGTLVTVSS VL: DIQMTQSPSSLSASVGDRVTITCRASQSILTYLNWYQQKPGKAPKLLIYAATSRASGVPSRFSGSGSGTDFTLTISSLQPEDFATYYCQQSYETPLTFGGGTKVEIK	3.25 OD	3.24 OD	2.97 OD
374_G06 (antibody, V domains shown, VH/VL only) VH: EVQLLESGGGLVQPGGSLRLSCAASGFTFSSYGMHWVRQAPGKGLEWVASINYNGGYTSYADSVKGRFTISRDNSKNTLYLQMNSLRAEDTAVYYCARSANWHDTALDYWGQGTLVTVSS VL: DIQMTQSPSSLSASVGDRVTITCRASQSILSYLNWYQQKPGKAPKLLIYAVTSRASGVPSRFSGSGSGTDFTLTISSLQPEDFATYYCQQSYDLPLTFGGGTKVEIK	3.42 OD	3.26 OD	3.29 OD
374_F04 (antibody, V domains shown, VH/VL only) VH: EVQLLESGGGLVQPGGSLRLSCAASGFTFSSYGMNWVRQAPGKGLEWVSGINYNSGYKSYADSVKGRFTISRDNSKNTLYLQMNSLRAEDTAVYYCARSANWHDTALDYWGQGTLVTVSS VL: DIQMTQSPSSLSASVGDRVTITCRASQSILTYVNWYQQKPGKAPKLLIYAATSRASGVPSRFSGSGSGTDFTLTISSLQPEDFATYYCQQSYNSPLTFGGGTKVEIK	3.65 OD	3.58 OD	3.23 OD
374_H03 (antibody, V domains shown, VH/VL only) VH: EVQLLESGGGLVQPGGSLRLSCAASGFTFSSYGMNWVRQAPGKGLEWVSGINYNSGYKSYADSVKGRFTISRDNSKNTLYLQMNSLRAEDTAVYYCARSANWHDTALDYWGQGTLVTVSS VL: DIQMTQSPSSLSASVGDRVTITCRASQSILSYVNWYQQKPGKAPKLVIYAATSRASGVPSRFSGSGSGTDFTLTISSLQPEDFATYYCQQSYDSPLTFGGGTKVEIK	3.27 OD	3.27 OD	3.06 OD
374_E05 (antibody, V domains shown, VH/VL only) VH: EVQLLESGGGLVQPGGSLRLSCAASGFTFSSYSMNWVRQAPGKGLEWVAGINYNGGYTSYADSVKGRFTISRDNSKNTLYLQMNSLRAEDTAVYYCARSANWHDTALDYWGQGTLVTVSS VL: DIQMTQSPSSLSASVGDRVTITCRASQSILSFVNWYQQKPGKAPKLVIYAATSRASGVPSRFSGSGSGTDFTLTISSLQPEDFATYYCQQSYNLPLTFGGGTKVEIK	3.57 OD	3.56 OD	3.18 OD
374_G07 (antibody, V domains shown, VH/VL only) VH: EVQLLESGGGLVQPGGSLRLSCAASGFTFSSYSMNWVRQAPGKGLEWVSGINYNSGYKSYADSVKGRFTISRDNSKNTLYLQMNSLRAEDTAVYYCARSANWHDTALDYWGQGTLVTVSS VL: DIQMTQSPSSLSASVGDRVTITCRASQSIISYLNWYQQKPGKAPKLLIYAATSRASGVPSRFSGSGSGTDFTLTISSLQPEDFATYYCQQSYDSPLTFGGGTKVEIK	3.72 OD	3.63 OD	3.26 OD
374_E07 (antibody, V domains shown, VH/VL only) VH: EVQLLESGGGLVQPGGSLRLSCAASGFTFSDYSMNWVRQAPGKGLEWVAGINYNGGYTSYADSVKGRFTISRDNSKNTLYLQMNSLRAEDTAVYYCARSANWHDTALDYWGQGTLVTVSS VL: DIQMTQSPSSLSASVGDRVTITCRASQSIITYVNWYQQKPGKAPKLVIYAATSRASGVPSRFSGSGSGTDFTLTISSLQPEDFATYYCQQSYNTPLTFGGGTKVEIK	3.58 OD	3.63 OD	3.2 OD
374_E11 (antibody, V domains shown, VH/VL only) VH: EVQLLESGGGLVQPGGSLRLSCAASGFTFSSYGMNWVRQAPGKGLEWVSNINYNGGYTSYADSVKGRFTISRDNSKNTLYLQMNSLRAEDTAVYYCARSANWHDTALDYWGQGTLVTVSS VL: DIQMTQSPSSLSASVGDRVTITCRASQSIVTYLNWYQQKPGKAPKLVIYAATSRASGVPSRFSGSGSGTDFTLTISSLQPEDFATYYCQQSYDSPLTFGGGTKVEIK	3.59 OD	3.61 OD	3.34 OD
